Experimental data published in patent US20240117018A1.

What was measured:
Assay in all cases: cell-based or functional assay
[1] = target: HIV-1 Env of pseudovirus X1632_S2_B10 (HIV-1)
[2] = target: HIV-1 Env of pseudovirus 3301.v1.c24 (HIV-1)
[3] = target: HIV-1 Env of pseudovirus C1080.c03 (HIV-1)
[4] = target: HIV-1 Env of pseudovirus 191084 B7-19 (HIV-1)
[5] = target: HIV-1 Env of pseudovirus 191955_A11 (HIV-1)
[6] = target: HIV-1 Env of pseudovirus 263-8 (HIV-1)
[7] = target: HIV-1 Env of pseudovirus X2131_C1_B5 (HIV-1)
[8] = target: HIV-1 Env of pseudovirus 0815.v3.c3 (HIV-1)
[9] = target: HIV-1 Env of pseudovirus C4118.c09 (HIV-1)
[10] = target: HIV-1 Env of pseudovirus BJOX025000.01.1 (HIV-1)
[11] = target: HIV-1 Env of pseudovirus 6041.v3.c23 (HIV-1)
[12] = target: HIV-1 Env of pseudovirus 3817.v2.c59 (HIV-1)
[13] = target: HIV-1 Env of pseudovirus BJOX028000.10.3 (HIV-1)
[14] = target: HIV-1 Env of pseudovirus 6540.v4.c1 (HIV-1)
[15] = target: HIV-1 Env of pseudovirus 89-F1_2_25 (HIV-1)
[16] = target: HIV-1 Env of pseudovirus BJOX010000.06.2 (HIV-1)
[17] = target: HIV-1 Env of pseudovirus R2184.c04 (HIV-1)
[18] = target: HIV-1 Env of pseudovirus X2088_c9 (HIV-1)
[19] = target: HIV-1 Env of pseudovirus X1193_c1 (HIV-1)
[20] = target: HIV-1 Env of pseudovirus R3265.c06 (HIV-1)
[21] = target: HIV-1 Env of pseudovirus T257-31 (HIV-1)
[22] = target: HIV-1 Env of pseudovirus BJOX015000.11.5 (HIV-1)
[23] = target: HIV-1 Env of pseudovirus 211-9 (HIV-1)
[24] = target: HIV-1 Env of pseudovirus 235-47 (HIV-1)
[25] = target: HIV-1 Env of pseudovirus 928-28 (HIV-1)
[26] = target: HIV-1 Env of pseudovirus 3103.v3.c10 (HIV-1)
[27] = target: HIV-1 Env of pseudovirus R1166.c01 (HIV-1)
[28] = target: HIV-1 Env of pseudovirus P0402_c2_11 (HIV-1)
[29] = target: HIV-1 Env of pseudovirus 6480.v4.c25 (HIV-1)
[30] = target: HIV-1 Env of pseudovirus C3347.c11 (HIV-1)
[31] = target: HIV-1 Env of pseudovirus 6811.v7.c18 (HIV-1)
[32] = target: HIV-1 Env of pseudovirus T255-34 (HIV-1)
[33] = target: HIV-1 Env of pseudovirus BJOX009000.02.4 (HIV-1)
[34] = target: HIV-1 Env of pseudovirus P1981_C5_3 (HIV-1)
[35] = target: HIV-1 Env of pseudovirus T251-18 (HIV-1)
[36] = target: HIV-1 Env of pseudovirus 231966.c02 (HIV-1)

Substance: PGT128 (antibody)
- IC50 (Titer in TZM.bl cells) [1]: > 50 µg/mL
- IC80 (Titer in TZM.bl cells) [1]: > 50 µg/mL
- IC50 (Titer in TZM.bl cells) [2]: 0.067 µg/mL
- IC80 (Titer in TZM.bl cells) [2]: 0.499 µg/mL
- IC50 (Titer in TZM.bl cells) [3]: 0.283 µg/mL
- IC80 (Titer in TZM.bl cells) [3]: 2.06 µg/mL
- neutralization IC50 [4]: 0.022 µg/mL
- neutralization IC80 [4]: 0.152 µg/mL
- neutralization IC50 [5]: 14.2 µg/mL
- neutralization IC80 [5]: > 50 µg/mL
- neutralization IC50 [6]: 0.342 µg/mL
- neutralization IC80 [6]: 3.3 µg/mL
- IC50 (Titer in TZM.bl cells) [7]: > 50 µg/mL
- IC80 (Titer in TZM.bl cells) [7]: > 50 µg/mL
- IC50 (Titer in TZM.bl cells) [8]: 0.03 µg/mL
- IC80 (Titer in TZM.bl cells) [8]: 0.137 µg/mL
- IC50 (Titer in TZM.bl cells) [9]: > 50 µg/mL
- IC80 (Titer in TZM.bl cells) [9]: > 50 µg/mL
- IC50 (Titer in TZM.bl cells) [10]: > 50 µg/mL
- IC80 (Titer in TZM.bl cells) [10]: > 50 µg/mL
- IC50 (Titer in TZM.bl cells) [11]: > 50 µg/mL
- IC80 (Titer in TZM.bl cells) [11]: > 50 µg/mL
- IC50 (Titer in TZM.bl cells) [12]: 0.003 µg/mL
- IC80 (Titer in TZM.bl cells) [12]: 0.023 µg/mL
- IC50 (Titer in TZM.bl cells) [13]: 0.024 µg/mL
- IC80 (Titer in TZM.bl cells) [13]: 0.07 µg/mL
- IC50 (Titer in TZM.bl cells) [14]: 11.8 µg/mL
- IC80 (Titer in TZM.bl cells) [14]: > 50 µg/mL
- IC50 (Titer in TZM.bl cells) [15]: > 50 µg/mL
- IC80 (Titer in TZM.bl cells) [15]: > 50 µg/mL
- IC50 (Titer in TZM.bl cells) [16]: 4.82 µg/mL
- IC80 (Titer in TZM.bl cells) [16]: > 50 µg/mL
- IC50 (Titer in TZM.bl cells) [17]: 20.1 µg/mL
- IC80 (Titer in TZM.bl cells) [17]: > 50 µg/mL
- IC50 (Titer in TZM.bl cells) [18]: > 50 µg/mL
- IC80 (Titer in TZM.bl cells) [18]: > 50 µg/mL
- IC50 (Titer in TZM.bl cells) [19]: > 50 µg/mL
- IC80 (Titer in TZM.bl cells) [19]: > 50 µg/mL
- IC50 (Titer in TZM.bl cells) [20]: > 50 µg/mL
- IC80 (Titer in TZM.bl cells) [20]: > 50 µg/mL
- neutralization IC50 [21]: > 50 µg/mL
- neutralization IC80 [21]: > 50 µg/mL
- IC50 (Titer in TZM.bl cells) [22]: 0.001 µg/mL
- IC80 (Titer in TZM.bl cells) [22]: 0.011 µg/mL
- IC50 (Titer in TZM.bl cells) [23]: 0.062 µg/mL
- IC80 (Titer in TZM.bl cells) [23]: 0.215 µg/mL
- IC50 (Titer in TZM.bl cells) [24]: > 50 µg/mL
- IC80 (Titer in TZM.bl cells) [24]: > 50 µg/mL
- neutralization IC50 [25]: > 50 µg/mL
- neutralization IC80 [25]: > 50 µg/mL
- IC50 (Titer in TZM.bl cells) [26]: 0.014 µg/mL
- IC80 (Titer in TZM.bl cells) [26]: 0.033 µg/mL
- IC50 (Titer in TZM.bl cells) [27]: > 50 µg/mL
- IC80 (Titer in TZM.bl cells) [27]: > 50 µg/mL
- IC50 (Titer in TZM.bl cells) [28]: 0.007 µg/mL
- IC80 (Titer in TZM.bl cells) [28]: 0.02 µg/mL
- IC50 (Titer in TZM.bl cells) [29]: 0.003 µg/mL
- IC80 (Titer in TZM.bl cells) [29]: 0.019 µg/mL
- IC50 (Titer in TZM.bl cells) [30]: 0.001 µg/mL
- IC80 (Titer in TZM.bl cells) [30]: 0.007 µg/mL
- IC50 (Titer in TZM.bl cells) [31]: 0.003 µg/mL
- IC80 (Titer in TZM.bl cells) [31]: 0.05 µg/mL
- IC50 (Titer in TZM.bl cells) [32]: > 50 µg/mL
- IC80 (Titer in TZM.bl cells) [32]: > 50 µg/mL
- IC50 (Titer in TZM.bl cells) [33]: < 0.001 µg/mL
- IC80 (Titer in TZM.bl cells) [33]: 0.005 µg/mL
- IC50 (Titer in TZM.bl cells) [34]: 0.019 µg/mL
- IC80 (Titer in TZM.bl cells) [34]: 0.088 µg/mL
- IC50 (Titer in TZM.bl cells) [35]: > 50 µg/mL
- IC80 (Titer in TZM.bl cells) [35]: > 50 µg/mL
- IC50 (Titer in TZM.bl cells) [36]: 3.2 µg/mL
- IC80 (Titer in TZM.bl cells) [36]: > 50 µg/mL
